{"source": "paper PMC5775914", "about": "(Cell chemical biology, 2017)", "target": "fluorescein-labeled histone H3 N-terminal peptide (residues 1-21) (UniProt P68431 2-22, fluorescein-labeled (position not given))", "assay": "fluorescence polarisation"}
{"binder": "recombinant UBR7 PHD finger (domain or fragment) GLYCICKRPYPDPEDEIPDEMIQCVVCEDWFHGRHLGAIPPESGDFQEMVCQACMKR", "values": [{"measurement": "Kd", "result": "50 to 100", "unit": "µM"}]}
